In patent US20180155451A1 (published 2018):

Biological target: T1, FcγRIa extracellular domain with C-terminal His tag (human, UniProt P12314 16-292)
T1 construct: extracellular domain; Expressed in FreeStyle293 cells; analyte in Biacore; also called FcgRI; FcgRIa
Assay: SPR Biacore, antibody captured, FcγRIa analyte; vs GpH7-A5/GpH7-B3/GpL16-k0 = 100

T1 sequence (P12314 16-292): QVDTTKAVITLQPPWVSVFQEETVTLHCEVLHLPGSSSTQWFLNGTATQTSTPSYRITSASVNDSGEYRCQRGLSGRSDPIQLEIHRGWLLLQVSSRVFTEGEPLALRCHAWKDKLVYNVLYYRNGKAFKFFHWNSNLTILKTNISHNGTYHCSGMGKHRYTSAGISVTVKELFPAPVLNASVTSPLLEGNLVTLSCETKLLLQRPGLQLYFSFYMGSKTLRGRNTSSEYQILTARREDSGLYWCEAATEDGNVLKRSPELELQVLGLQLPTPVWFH

Binder | He/Con_1a
GpH7-A5/GpH7-B3 variant I336_10E/GpL16-k0 (He Ab) (antibody, human IgG1, kappa, He Ab: alteration only in the GpH7-B3 chain) heavy 1: not shown heavy 2: not shown light: DIVMTQSPLSLPVTPGEPASISCQASESLVHSNRNTYLHWYLQKPGQSPQLLIYKVSNRFSGVPDRFSGSGSGTDFTLKISRVEAEDVGVYYCSQNTHVPPTFGQGTKVEIERTVAAPSVFIFPPSDEQLKSGTASVVCLLNNFYPREAKVQWKVDNALQSGNSQESVTEQDSKDSTYSLSSTLTLSKADYEKHKVYACEVTHQGLSSPVTKSFNRGEC | 108 relative (control = 100)
GpH7-A5/GpH7-B3 variant K326_14T/GpL16-k0 (He Ab) (antibody, human IgG1, kappa, He Ab: alteration only in the GpH7-B3 chain) heavy 1: not shown heavy 2: not shown light: DIVMTQSPLSLPVTPGEPASISCQASESLVHSNRNTYLHWYLQKPGQSPQLLIYKVSNRFSGVPDRFSGSGSGTDFTLKISRVEAEDVGVYYCSQNTHVPPTFGQGTKVEIERTVAAPSVFIFPPSDEQLKSGTASVVCLLNNFYPREAKVQWKVDNALQSGNSQESVTEQDSKDSTYSLSSTLTLSKADYEKHKVYACEVTHQGLSSPVTKSFNRGEC | 104 relative (control = 100)
GpH7-A5/GpH7-B3 variant I336_04F/GpL16-k0 (He Ab) (antibody, human IgG1, kappa, He Ab: alteration only in the GpH7-B3 chain) heavy 1: not shown heavy 2: not shown light: DIVMTQSPLSLPVTPGEPASISCQASESLVHSNRNTYLHWYLQKPGQSPQLLIYKVSNRFSGVPDRFSGSGSGTDFTLKISRVEAEDVGVYYCSQNTHVPPTFGQGTKVEIERTVAAPSVFIFPPSDEQLKSGTASVVCLLNNFYPREAKVQWKVDNALQSGNSQESVTEQDSKDSTYSLSSTLTLSKADYEKHKVYACEVTHQGLSSPVTKSFNRGEC | 106 relative (control = 100)
GpH7-A5/GpH7-B3 variant E269_15Y/GpL16-k0 (He Ab) (antibody, human IgG1, kappa, He Ab: alteration only in the GpH7-B3 chain) heavy 1: not shown heavy 2: not shown light: DIVMTQSPLSLPVTPGEPASISCQASESLVHSNRNTYLHWYLQKPGQSPQLLIYKVSNRFSGVPDRFSGSGSGTDFTLKISRVEAEDVGVYYCSQNTHVPPTFGQGTKVEIERTVAAPSVFIFPPSDEQLKSGTASVVCLLNNFYPREAKVQWKVDNALQSGNSQESVTEQDSKDSTYSLSSTLTLSKADYEKHKVYACEVTHQGLSSPVTKSFNRGEC | 106 relative (control = 100)
GpH7-A5/GpH7-B3 variant I336_02A/GpL16-k0 (He Ab) (antibody, human IgG1, kappa, He Ab: alteration only in the GpH7-B3 chain) heavy 1: not shown heavy 2: not shown light: DIVMTQSPLSLPVTPGEPASISCQASESLVHSNRNTYLHWYLQKPGQSPQLLIYKVSNRFSGVPDRFSGSGSGTDFTLKISRVEAEDVGVYYCSQNTHVPPTFGQGTKVEIERTVAAPSVFIFPPSDEQLKSGTASVVCLLNNFYPREAKVQWKVDNALQSGNSQESVTEQDSKDSTYSLSSTLTLSKADYEKHKVYACEVTHQGLSSPVTKSFNRGEC | 106 relative (control = 100)

Continued, values first:

He/Con_1a | Binder
102 relative (control = 100) | GpH7-A5/GpH7-B3 variant P271_03V/GpL16-k0 (He Ab) (antibody, human IgG1, kappa, He Ab: alteration only in the GpH7-B3 chain) heavy 1: not shown heavy 2: not shown light: DIVMTQSPLSLPVTPGEPASISCQASESLVHSNRNTYLHWYLQKPGQSPQLLIYKVSNRFSGVPDRFSGSGSGTDFTLKISRVEAEDVGVYYCSQNTHVPPTFGQGTKVEIERTVAAPSVFIFPPSDEQLKSGTASVVCLLNNFYPREAKVQWKVDNALQSGNSQESVTEQDSKDSTYSLSSTLTLSKADYEKHKVYACEVTHQGLSSPVTKSFNRGEC
102 relative (control = 100) | GpH7-A5/GpH7-B3 variant P271_04F/GpL16-k0 (He Ab) (antibody, human IgG1, kappa, He Ab: alteration only in the GpH7-B3 chain) heavy 1: not shown heavy 2: not shown light: DIVMTQSPLSLPVTPGEPASISCQASESLVHSNRNTYLHWYLQKPGQSPQLLIYKVSNRFSGVPDRFSGSGSGTDFTLKISRVEAEDVGVYYCSQNTHVPPTFGQGTKVEIERTVAAPSVFIFPPSDEQLKSGTASVVCLLNNFYPREAKVQWKVDNALQSGNSQESVTEQDSKDSTYSLSSTLTLSKADYEKHKVYACEVTHQGLSSPVTKSFNRGEC
102 relative (control = 100) | GpH7-A5/GpH7-B3 variant P271_07I/GpL16-k0 (He Ab) (antibody, human IgG1, kappa, He Ab: alteration only in the GpH7-B3 chain) heavy 1: not shown heavy 2: not shown light: DIVMTQSPLSLPVTPGEPASISCQASESLVHSNRNTYLHWYLQKPGQSPQLLIYKVSNRFSGVPDRFSGSGSGTDFTLKISRVEAEDVGVYYCSQNTHVPPTFGQGTKVEIERTVAAPSVFIFPPSDEQLKSGTASVVCLLNNFYPREAKVQWKVDNALQSGNSQESVTEQDSKDSTYSLSSTLTLSKADYEKHKVYACEVTHQGLSSPVTKSFNRGEC
103 relative (control = 100) | GpH7-A5/GpH7-B3 variant K326_16H/GpL16-k0 (He Ab) (antibody, human IgG1, kappa, He Ab: alteration only in the GpH7-B3 chain) heavy 1: not shown heavy 2: not shown light: DIVMTQSPLSLPVTPGEPASISCQASESLVHSNRNTYLHWYLQKPGQSPQLLIYKVSNRFSGVPDRFSGSGSGTDFTLKISRVEAEDVGVYYCSQNTHVPPTFGQGTKVEIERTVAAPSVFIFPPSDEQLKSGTASVVCLLNNFYPREAKVQWKVDNALQSGNSQESVTEQDSKDSTYSLSSTLTLSKADYEKHKVYACEVTHQGLSSPVTKSFNRGEC
102 relative (control = 100) | GpH7-A5/GpH7-B3 variant P271_06M/GpL16-k0 (He Ab) (antibody, human IgG1, kappa, He Ab: alteration only in the GpH7-B3 chain) heavy 1: not shown heavy 2: not shown light: DIVMTQSPLSLPVTPGEPASISCQASESLVHSNRNTYLHWYLQKPGQSPQLLIYKVSNRFSGVPDRFSGSGSGTDFTLKISRVEAEDVGVYYCSQNTHVPPTFGQGTKVEIERTVAAPSVFIFPPSDEQLKSGTASVVCLLNNFYPREAKVQWKVDNALQSGNSQESVTEQDSKDSTYSLSSTLTLSKADYEKHKVYACEVTHQGLSSPVTKSFNRGEC
110 relative (control = 100) | GpH7-A5/GpH7-B3 variant K334_10E/GpL16-k0 (He Ab) (antibody, human IgG1, kappa, He Ab: alteration only in the GpH7-B3 chain) heavy 1: not shown heavy 2: not shown light: DIVMTQSPLSLPVTPGEPASISCQASESLVHSNRNTYLHWYLQKPGQSPQLLIYKVSNRFSGVPDRFSGSGSGTDFTLKISRVEAEDVGVYYCSQNTHVPPTFGQGTKVEIERTVAAPSVFIFPPSDEQLKSGTASVVCLLNNFYPREAKVQWKVDNALQSGNSQESVTEQDSKDSTYSLSSTLTLSKADYEKHKVYACEVTHQGLSSPVTKSFNRGEC
